In US20140227291A1 (AbbVie / Abbott, published 2014):

T1: Abeta(12-42) globulomer (human)
T1 construct: Oligomer
T1 peptide: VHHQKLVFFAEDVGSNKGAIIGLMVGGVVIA

T2: Abeta(20-42) globulomer (human)
T2 construct: Oligomer; also called amyloid-beta (20-42) globulomer
T2 peptide: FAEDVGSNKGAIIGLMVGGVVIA


Assays:
[1] = target: T3, Abeta(1-42) monomer in 0.1% NaOH (human); assay: dot blot, antigen dilution series on nitrocellulose, antibody 0.2 µg/ml, densitometry
T3 construct: also called Abeta(1-42) monomer, 0.1% NaOH
Procedure: (§1) The dot blot was developed with 10 ml BM Blue POD Substrate for 10 min. The development was stopped by intense washing of the dot blot with H₂O. Quantitative evaluation was done based on a densitometric analysis (GS800 densitometer (BioRad) and software package Quantity one, Version 4.5.0 (Bio-Rad)) of the dot intensity. […] This threshold value was determined for every dot blot independently. The calculated value indicates the relation between recognition of Aβ(20-42) globulomer and the respective Aβ form for the given antibody.
(§2) The individual Aβ forms were applied in serial dilutions and incubated with the respective antibodies for immune reaction (1=Aβ(1-42) monomer, 0.1% NH₄OH; 2=Aβ(1-40) monomer, 0.1% NH₄OH; 3=Aβ(1-42) monomer, 0.1% NaOH; 4=Aβ(1-40) monomer, 0.1% NaOH; 5=Aβ(1-42) globulomer; 6=Aβ(12-42) globulomer; 7=Aβ(20-42) globulomer; 8=Aβ(1-42) fibril preparation; 9=sAPPα (Sigma); (first dot: 1 pmol)).

Abeta(1-42) globulomer [2] = target: T4, Abeta(1-42) globulomer (human, UniProt P05067 672-713); assay: as above
T4 construct: also called 38/48-kDa Abeta(1-42) globulomer
Procedure: as §1, §2

[3] = target: T5, Abeta(1-42) monomer in 0.1% NH4OH (human); assay: as above
T5 construct: also called Abeta(1-42) monomer, 0.1% NH4OH
Procedure: as §1, §2

[4] = target: T6, Abeta(1-42) fibril preparation (human, UniProt P05067 672-713); assay: as above
T6 construct: also called Abeta(1-42) fibrils
Procedure: as §1, §2

Abeta(12-42) globulomer [5] = target: T1, Abeta(12-42) globulomer; assay: as above
Procedure: as §1, §2

[6] = target: T7, Abeta(1-40) monomer in 0.1% NaOH (human); assay: as above
T7 construct: also called Abeta(1-40) monomer, 0.1% NaOH
T7 sequence (peptide, as listed by the source): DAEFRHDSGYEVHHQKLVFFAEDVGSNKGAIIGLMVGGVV
Procedure: as §1, §2

[7] = target: T8, Abeta(1-40) monomer in 0.1% NH4OH (human); assay: as above
T8 construct: also called Abeta(1-40) monomer, 0.1% NH4OH
T8 sequence (peptide, as listed by the source): as above
Procedure: as §1, §2

[8] = target: T3, Abeta(1-42) monomer in 0.1% NaOH; assay: dot blot: antigen dilution series dotted on nitrocellulose, anti-mouse-IgG-POD detection
Procedure: (§3) In order to characterize the selectivity of monoclonal anti Aβ(20-42) globulomer antibodies, they were tested for binding to different Aβ-forms. To this end, serial dilutions of the individual Aβ(1-42) forms ranging from 100 pmol/μl to 0.00001 pmol/μl in PBS supplemented with 0.2 mg/ml BSA were prepared. 1 μl of each dilution was blotted onto a nitrocellulose membrane. Detection was performed by incubating with the corresponding antibody (0.2 μg/ml) followed by immunostaining using Peroxidase conjugated anti-mouse-IgG and the staining reagent BM Blue POD Substrate (Roche).
as §2

Abeta(1-42) globulomer [9] = target: T4, Abeta(1-42) globulomer; assay: as above
Procedure: as §3, §2

[10] = target: T5, Abeta(1-42) monomer in 0.1% NH4OH; assay: as above
Procedure: as §3, §2

[11] = target: T6, Abeta(1-42) fibril preparation; assay: as above
Procedure: as §3, §2

Abeta(12-42) globulomer [12] = target: T1, Abeta(12-42) globulomer; assay: as above
Procedure: as §3, §2

[13] = target: T9, sAPPalpha (Sigma cat. no. S9564) (UniProt P05067-4 18-612, limits assumed); assay: as above
T9 construct: Bought protein; also called sAPPα; soluble Abeta precursor
T9 sequence (P05067 other isoform, or with tags, fused parts or gaps limits assumed): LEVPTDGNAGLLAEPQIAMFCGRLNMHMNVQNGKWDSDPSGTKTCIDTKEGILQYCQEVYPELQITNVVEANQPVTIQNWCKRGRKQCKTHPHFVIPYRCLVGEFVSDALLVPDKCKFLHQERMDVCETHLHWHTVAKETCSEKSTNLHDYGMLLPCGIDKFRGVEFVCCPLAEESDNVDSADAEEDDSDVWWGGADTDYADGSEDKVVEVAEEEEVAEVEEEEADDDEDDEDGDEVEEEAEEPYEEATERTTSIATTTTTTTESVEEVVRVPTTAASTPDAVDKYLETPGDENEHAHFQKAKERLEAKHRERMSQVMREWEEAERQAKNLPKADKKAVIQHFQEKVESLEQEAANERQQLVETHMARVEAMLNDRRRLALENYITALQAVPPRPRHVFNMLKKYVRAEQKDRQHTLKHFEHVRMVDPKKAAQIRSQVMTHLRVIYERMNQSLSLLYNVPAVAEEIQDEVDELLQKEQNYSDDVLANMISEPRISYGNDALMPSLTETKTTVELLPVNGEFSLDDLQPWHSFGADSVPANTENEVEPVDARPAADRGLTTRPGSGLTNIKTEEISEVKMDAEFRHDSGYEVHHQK
Procedure: as §3, §2

[14] = target: T7, Abeta(1-40) monomer in 0.1% NaOH; assay: as above
Procedure: as §3, §2

[15] = target: T8, Abeta(1-40) monomer in 0.1% NH4OH; assay: as above
Procedure: as §3, §2

Abeta(20-42) globulomer = target: T2, Abeta(20-42) globulomer; assay: dot blot, antigen dilution series on nitrocellulose, antibody 0.2 µg/ml, densitometry; reference antigen
Procedure: as §1, §2

[16] = target: T9, sAPPalpha (Sigma cat. no. S9564); assay: dot blot, antigen dilution series on nitrocellulose (first dot 1 pmol), antibody 0.2 µg/ml, densitometry

Row | dot blot ratio (recognition of Abeta(20-42) globulomer relative to this Abeta form) [1] | dot blot ratio (recognition of Abeta(20-42) globulomer relative to this Abeta form) (Abeta(1-42) globulomer [2]) | dot blot ratio (recognition of Abeta(20-42) globulomer relative to this Abeta form) [3] | dot blot ratio (recognition of Abeta(20-42) globulomer relative to this Abeta form) [4] | dot blot ratio (recognition of Abeta(20-42) globulomer relative to this Abeta form) (Abeta(12-42) globulomer [5]) | dot blot ratio (recognition of Abeta(20-42) globulomer relative to this Abeta form) [6] | dot blot ratio (recognition of Abeta(20-42) globulomer relative to this Abeta form) [7] | binding result [8] | binding result (Abeta(1-42) globulomer [9]) | binding result [10] | binding result [11] | binding result (Abeta(12-42) globulomer [12]) | binding result [13] | binding result [14] | binding result [15] | dot blot ratio (recognition of Abeta(20-42) globulomer relative to this Abeta form) (Abeta(20-42) globulomer) | dot blot ratio (recognition of Abeta(20-42) globulomer relative to this Abeta form) [16] | Binder
1 | 39500 | 30000 | 36000 | 32600 | 60000 | 110000 | 27300 | no binding | no binding | no binding | no binding | no binding | no binding | no binding | no binding | 1 | – | murine monoclonal antibody m4C9 (antibody, V domains shown, Murine monoclonal antibody from hybridoma after immunization of mice with Abeta(20-42) globulomer; also called mAb m4C9; mAb 4C9) VH: QVQLQQPGAELVKPGASVKLSCKAPGYTFTSYWMHWVKQRPGQGLEWIGRIDPKSGDTKYTEKFKSKATLTVDKPSSTAYMQLSSLTSEDSAVYYCTTMSKLSGTHAWFAYWGQGTLVTVSA VL: DIKMTQSPSSMYASLGERVTITCKASQDINSYLTWFQQKPGKSPKTLIYRANRLVDGVPSRFSGSGSGQDYSLTISSLEYEDMGIYYCLQYDEFPLTFGAGTKLELK
2 | – | – | – | – | – | – | – | no binding | no binding | no binding | no binding | no binding | no binding | no binding | no binding | – | – | murine monoclonal antibody m10B3 (antibody, V domains shown, Murine monoclonal antibody from hybridoma after immunization of mice with Abeta(20-42) globulomer; also called mAb m10B3; mAb 10B3) VH: EVKLVESGGGLVQPGGSRKLSCAASGFTFSDYEMVWVRQAPGEGLEWVAYISSGSRTIHYADTVKGRFTISRDNPKNTLFLQMSSLRSEDTAMYYCARTLLRLHFDYWGQGTILTVSS VL: not shown
3 | – | – | – | – | 6 | – | – | – | – | – | – | – | – | – | – | 1 | 0.2 | Anti-Abeta monoclonal antibody clone 6E10 (Covance cat. no. SIG-39320) (antibody, V domains shown) VH: EVQLQQSGAELVKPGASVKLCTASGFNIKDTYIHWVKQRPEQGLEWIGRFDPVNVNTRYDSRFRGKATITSDASSNTAYLHLNSLTSEDTAVYYCSRSYYNGRRRFTYWGQGTLVTVSA VL: DIVMTQSPSSLTVTAGEKVALTCKASQSLLSSGNQKNYLTWYQQKPGQPPKLLIYWASIRESGVPDRFTGSGSGTFFTLTISSVQAEDLAVYYCQNDYNYPFTFGSGTKLEIK
